Assay results reported in the supplement of paper PMC12783771.
± gives the standard deviation of the averaged measurements.

B1: library; numbered along this chain (parent)
chain: MNIQIGELAKRTACPVVTIRFYEQEGLLPPPGRSRGNFRLYGEEHVERLQFIRHCRSLDMPLSDVRTLLSYRKRPDQDCGEVNMLLDEHIRQVESRIGALLELKHHLVELREACSGARPAQSCGILQGLSDCVCDTRGTTAHPSD

Key:
[1] = variants of: B1; test: sfGFP reporter fluorescence (15 h) (µM FITC); higher = higher leak; conditions: library round: Round 0; ligand: none
Method: (§1)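 Cell-free (BL21 Star DE3 extract, PANOx-SP) biosensing: 1 µL Echo-assembled reactions with linear PbrR variant templates (5 nM) and pPbrR-sfGFP reporter, with 1 µM Pb (lead chloride), 30 µM Zn (zinc acetate) or no ligand; endpoint sfGFP fluorescence after 15 h at 30 °C, calibrated as µM FITC. Round 0 library (alanine scan, site saturation, combinatorial) of PbrR from Cupriavidus metallidurans; 2 biological replicates.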

[2] = variants of: B1; test: sfGFP reporter fluorescence (15 h) (µM FITC); higher = stronger transcriptional activation; conditions: library round: Round 0
Method: as §1

[3] = variants of: B1; test: sfGFP reporter fluorescence (15 h) (µM FITC); higher = higher leak; conditions: library round: Round 1; ligand: none
How it was run: (§2)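 An Echo normalized PCR-made linear PbrR templates to 5 nM and assembled 1 μL reactions in BL21 Star (DE3) PANOx-SP extract carrying the pPbrR-sfGFP reporter plasmid and 30 μg/mL GamS. Reactions received 1 µM lead chloride, 30 µM zinc acetate or no metal and stood 15 hr at 30 °C. Fluorescence at 485/528 nm (Synergy Neo2) was converted with FITC standard curves made in 50 mM sodium borate pH 8.5. Endpoint sfGFP signal is given in µM FITC, from up to three biological replicates.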

[4] = variants of: B1; test: sfGFP reporter fluorescence (15 h) (µM FITC); higher = stronger transcriptional activation; conditions: library round: Round 1
How it was run: as §2

Row | Variant | sfGFP reporter fluorescence [1] | sfGFP reporter fluorescence ([2]; ligand: 1 µM Pb) | sfGFP reporter fluorescence ([2]; ligand: 30 µM Zn) | sfGFP reporter fluorescence [3] | sfGFP reporter fluorescence ([4]; ligand: 1 µM Pb) | sfGFP reporter fluorescence ([4]; ligand: 30 µM Zn)
1 | MNDQIGELAKRTACPVVTIRFYEQEGLLPPPGRSRGNFRLYGEEHVERLQFIRHCRSLDMPLSDVRTLLSYRKRPDQDCGEVNMLLDEHIRQVESRIGALLELKHHLVELREACSGARPAQSCGILQGLSDCVCDTRGTTAHPSD | 0.06139 ± 0.00026 | 0.06011 ± 0.00052 | 0.08118 ± 0.00078 | – | – | –
2 | MNCQIGELAKRTACPVVTIRFYEQEGLLPPPGRSRGNFRLYGEEHVERLQFIRHCRSLDMPLSDVRTLLSYRKRPDQDCGEVNMLLDEHIRQVESRIGALLELKHHLVELREACSGARPAQSCGILQGLSDCVCDTRGTTAHPSD | 0.0586 | 0.0737 ± 0.0052 | 0.774 ± 0.011 | – | – | –
3 | MNKQIGELAKRTACPVVTIRFYEQEGLLPPPGRSRGNFRLYGEEHVERLQFIRHCRSLDMPLSDVRTLLSYRKRPDQDCGEVNMLLDEHIRQVESRIGALLELKHHLVELREACSGARPAQSCGILQGLSDCVCDTRGTTAHPSD | 0.0608 ± 0.001 | 0.0652 ± 0.0057 | 0.308 ± 0.008 | – | – | –
4 | MNHQIGELAKRTACPVVTIRFYEQEGLLPPPGRSRGNFRLYGEEHVERLQFIRHCRSLDMPLSDVRTLLSYRKRPDQDCGEVNMLLDEHIRQVESRIGALLELKHHLVELREACSGARPAQSCGILQGLSDCVCDTRGTTAHPSD | 0.059 ± 0.001 | 0.0707 ± 0.0021 | 0.356 ± 0.01 | – | – | –
5 | MNMQIGELAKRTACPVVTIRFYEQEGLLPPPGRSRGNFRLYGEEHVERLQFIRHCRSLDMPLSDVRTLLSYRKRPDQDCGEVNMLLDEHIRQVESRIGALLELKHHLVELREACSGARPAQSCGILQGLSDCVCDTRGTTAHPSD | 0.0641 ± 0.0015 | 0.0768 ± 0.0018 | 1.27 ± 0.15 | – | – | –
6 | MNLQIGELAKRTACPVVTIRFYEQEGLLPPPGRSRGNFRLYGEEHVERLQFIRHCRSLDMPLSDVRTLLSYRKRPDQDCGEVNMLLDEHIRQVESRIGALLELKHHLVELREACSGARPAQSCGILQGLSDCVCDTRGTTAHPSD | 0.0568 ± 0.0057 | 0.0722 ± 0.0042 | 0.821 ± 0.0098 | – | – | –
7 | MNFQIGELAKRTACPVVTIRFYEQEGLLPPPGRSRGNFRLYGEEHVERLQFIRHCRSLDMPLSDVRTLLSYRKRPDQDCGEVNMLLDEHIRQVESRIGALLELKHHLVELREACSGARPAQSCGILQGLSDCVCDTRGTTAHPSD | 0.05552 ± 0.00026 | 0.0643 ± 0.0029 | 0.587 ± 0.019 | – | – | –
8 | MNEQIGELAKRTACPVVTIRFYEQEGLLPPPGRSRGNFRLYGEEHVERLQFIRHCRSLDMPLSDVRTLLSYRKRPDQDCGEVNMLLDEHIRQVESRIGALLELKHHLVELREACSGARPAQSCGILQGLSDCVCDTRGTTAHPSD | 0.061 ± 0.0013 | 0.0601 ± 0.001 | 0.101 ± 0.0013 | – | – | –
9 | MNGQIGELAKRTACPVVTIRFYEQEGLLPPPGRSRGNFRLYGEEHVERLQFIRHCRSLDMPLSDVRTLLSYRKRPDQDCGEVNMLLDEHIRQVESRIGALLELKHHLVELREACSGARPAQSCGILQGLSDCVCDTRGTTAHPSD | 0.061 ± 0.0023 | 0.0755 ± 0.0047 | 0.1957 ± 0.001 | – | – | –
10 | MNAQIGELAKRTACPVVTIRFYEQEGLLPPPGRSRGNFRLYGEEHVERLQFIRHCRSLDMPLSDVRTLLSYRKRPDQDCGEVNMLLDEHIRQVESRIGALLELKHHLVELREACSGARPAQSCGILQGLSDCVCDTRGTTAHPSD | 0.0544 ± 0.0049 | 0.0594 ± 0.001 | 0.339 ± 0.0078 | – | – | –
11 | MNIQIGELAKRTACPVVTIRFYEQEGLLPPPGRSRGNFRLYGEEHVERLQFIRHCRSLDMPLSDVRTLLSYRKRPDQDCGEVNMLLDEHIRQVESRIGALLELKHHLVELREACSGARPAQSCGILQGLSDCVCDTRGTTAHPSD | 0.0588 ± 0.0029 | 0.0826 ± 0.03 | 0.722 ± 0.087 | 0.0626 ± 0.0021 | 0.0729 ± 0.0052 | 0.487 ± 0.22
12 | MAIQIGELAKRTACPVVTIRFYEQEGLLPPPGRSRGNFRLYGEEHVERLQFIRHCRSLDMPLSDVRTLLSYRKRPDQDCGEVNMLLDEHIRQVESRIGALLELKHHLVELREACSGARPAQSCGILQGLSDCVCDTRGTTAHPSD | 0.0517 ± 0.001 | 0.0614 ± 0.0065 | 0.801 ± 0.036 | – | – | –
13 | ANIQIGELAKRTACPVVTIRFYEQEGLLPPPGRSRGNFRLYGEEHVERLQFIRHCRSLDMPLSDVRTLLSYRKRPDQDCGEVNMLLDEHIRQVESRIGALLELKHHLVELREACSGARPAQSCGILQGLSDCVCDTRGTTAHPSD | 0.0618 ± 0.0029 | 0.0715 ± 0.0047 | 0.124 ± 0.0015 | – | – | –
